Our source for the Kd values is PMC10511116.

The data set deals with ErbB2 (HER2), recombinant (human) (UniProt P04626). Description: ELONA. The note with it: every T is Nap-dU (5-[N-(1-naphthylmethyl)carboxamide]-2'-deoxyuridine, printed P); ELONA: ErbB2-coated plate, biotin-aptamer 1 h at room temp, wash 10 mM PBS, 0.05% Tween-20, pH 7.4 (binding buffer not stated); cells: DPBS, 4.5 g/L glucose ….

As usually defined, the Kd is the concentration at which binding is half-saturated. For “ATGTTAGAGTTTGCCTGAGTGCCTCGCAAGGGCGTAACAA [ErbB2 aptamer]”, the Kd turned out to be 1.37 nM.
